Assay: yeast display, Sf9 membrane polyspecificity reagent, FACS + sequencing; frameworks hold sequencing errors
Summary of the method: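 Galactose-induced (36–48 hours) yeast carrying a synthetic nanobody display library were exposed to 10% biotinylated, detergent-solubilized Sf9 membrane reagent at 4 °C for 1 hour. FACS followed streptavidin microbead enrichment, using low and high (top ~1%) gates for expression (anti-HA) and reagent binding (streptavidin). Colony PCR, MiSeq 2 × 250 sequencing and CDR-length filtering followed. Labels for polyreactivity reflect the gate of origin.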

Sequence	polyreactivity (PSR sort gate)
QVQLVESGGGLVQAGGSLRLSCAASGGTCSKYAMGWYRQARGKEREFVAAITVSGGGTYYADSVKGRFTISRDNAKNTVYLQMNSLKTEDTAVYYCAADLAWTASDYWGQGTQVTLSS	low polyreactivity
QVQLVESGGGLVQAGGSLRLSCAASGITFYTYAMGWYRQAPGKERELVAAITGTGTSTYYADSVKGRFTISRDNAKNTVYLQMNSLKPEDTAVYYCAAYKRGLPVKRDSWGQGTQVTVSS	high polyreactivity
QVQLVESGGGLVQAGGSLRLSCAASGRIFYYNAMGWYRQAPGKERELVAAISYTSGRTYYADSVKGRFTISRDNAKNTVYLQMNSLKPEDTAVYYCAADYYLRKGMDYWGQVTQVTVSS	low polyreactivity
QVQLVESGGGLVQAGGSLRLSCAASGMGWYRQAPGKERELVAAITSGDSTNYADSVKGRFTISRDNAKNTVYLQMNSLKPEDTAVYYCAADPDYLYAYYYWGQGSQVTVSS	low polyreactivity
QVQLQESGGGLVQAGGSPRLSCAASDNIFPDSVMCWYRQAPGKERELVATIGFGATTNYADSVKGRFTISRDNAKNTVYLQMNSLKPEDTAVYYCAADPLNYEYFCYGGQGTQVTVSS	low polyreactivity
QVQLVESGGGLVQAGGSLRLSCAASGITFNYYAMGWYRQAPGKERELVAAISWSGDRTYYADTVKGRFTISRDNAKYTVYLQMNSLKPEDTAVYYCAAKSVGEGDYWGQGTQVTVSS	low polyreactivity
QVQHVESGGGLVQAGGSLRLSCAATGRIFKYYARGWYTQAPGKERELVAAISSTGGRTYYADSVKGRFTNSRDNAKNTVYLQMNSLKPEDTAVFSCAADYAWGDPGRARFGYWGQGTQVTVSS	high polyreactivity
QVQLVESGGGLVQAGGSLRLSCAASGRIFSNNAMGWYRQAPGKERELVAAITNSGGSTYYADSVKGRFTISRDNAKNTVYLQMNSLKPEDTAVYYCAADHLSVPYDVYWTYSYWGQGTQVTVSS	low polyreactivity
QVQLVESGGGLVQAGGSLRLSCAASGSIFGRYTMGWYRQAPGKERELVAAISSSGGRTYYADSVKGRFTISRDNAKNTVFLQMNSLKPEDTAVYYCNNGYGYEYYWGQGTQVTVSS	low polyreactivity
QVQLVESGGGLVQAGGSLRLSCAASGRIFAGYAMGWYRQAPGKERELVASIRYSGGSTYADSVKGRFPISRDNAKNTVYLQMNSLKAEDTAVYYCAADIRQFYVGWGSTLWYGHDYWGQGTQVTVSS	low polyreactivity
QVQLVESGGGLVQAGGSLRLSCAASGYIFPTYAMGWYRQEPGKERELVAAISISGGDTYYADSVKGRFTISRDNAKNTVYLQMNSLKPEDTAVYYCAAVKYETYRYNYDYWGQGTQVTVSS	high polyreactivity
QVQLVESGGGLVQAGGSLRLSCAASARTFVWNAMGWYRQAPGKERELVAAIDWSGGSTYYADSVKGRFTISRDNAKNTVYFQMYSLKPEDTAVYYCAVAVWNGSEYWGQGSQVTVSS	high polyreactivity
QVQLVVSGGGLVQAGGSLRLSCAASGSFFPIYAMGWYRQAPGKERELVAAITSGGSTNYADSVKGRFTISRDNAKNTVYLQMNSLKPEDTAVYYCAAGGPDHADRYEYWGQGTQVTVSS	low polyreactivity
QVQLVESGGGLVQAGGSLRLSRAASGITFGFKAMGWYRQAPGKERELVAAITWSVGRTYYADSVKGRFTISRDNAKNTVYLQMNSLKPEDTAVYYCAKDFEAGDDYFAYDYWGQGTQVTVSS	low polyreactivity
QVQLVESGGGLVQAGGSLRLTCDASGSTFVYYAMGWYRQAPGKERELVAAITFSGGTTFYADSVKGRFTISRDNANNTVYLQMNSLKPEDTAVYYCAADAGFADQYANYHGDDYWGQGTQVTVSS	low polyreactivity
QVQLVESGAGLFQAGGSLRLSCAASGRIFNQYGMAWYRQAPGKERELVAAIRSGDSTNYADSVKGRFTISRDNAKNTVFLQMNSLKPEVTAVYYCARDRPGDYDGYDYCGQGTQVTVSS	low polyreactivity
QVQLVESGGGLVQAGGSLRLSCAASGSTFWYNAMGWYRPAPGKERELVAAITWSGGSTYYADSVKGRFTISRDNAKNTVYLQMNSLKPEDTAVYYCAADHSAYSVFSGYKYGYWGQGTQVTVSS	low polyreactivity
QVQLVESGGGLVQAGGSLRLSCAASGRTFTVYAMGWYRLAPGKERELVAAISSGGITNYADSVKGRFTISRDNAKNTVYLQMNSLKPEDTAVYYCNTKSGKARYEFGYWGQGTQVTLSS	low polyreactivity
QVQLVESGGGLVQAGGSLRLSCAAYGSTFRTNAMGWYRQAPGKERELVAAISQRGGSTYYADSVKGRFTISRDNAKNTVYLQMNSLKPEDTGVYYCAARRYAYQSGGTLLTDDYWGQGTQVTVSS	high polyreactivity
QVQLVESGGRIVQAGGSLRLSCAASGSILNNYAMGWYRQAPGKERELVAAISSSGGTNYADSVKGRFTISRDNEKNTVFLQMNSLKPEDTAVYYCNADVLDGGYDYWGQGTQVTVSS	low polyreactivity
QVQLVESGGGLVQAGGSLRLSCAASGSIFRRYAMGWYRKAPGKEREMVAGISRTGSRTYYADSVKGRFTISRDNAKNTVYLQMNSLKPEDTAVYYCAALGPGRSGFFRYDYWGQGTQVTVSS	high polyreactivity
QVQLVESGGGLVQAGGSLRLSCAASGITFRHYAMGWYRQAPGKEREFVAAITASGSSTYYADSVKGRFTISRDTAKNTVYLQMNSLKPEDTAVYYCAAAGYKYNSRGDYWGPGTQVTVSS	high polyreactivity

Sequence	polyreactivity (PSR sort gate)
QVQLVESGGGLVQAGGSLRLSCAASGFTFRAYAMGWYRQAPGKERELVAAISWGGGSTYYADSVKGRFTISRDNAKNTVYLQMNSLKPEDTAVYYCATERRRYNTEYEYWGQGTQVTVSS	high polyreactivity
QVQLVESGGGLVQAGGSLRLSCAASGFTFIYYAMGWYRQAPGKERELVAAISTSGGRTYYADSVKGRFTISRDNAKNTVYLQMNCLKPEYTAVYYCAADGHYRYTSRYGLIVRYDYWGQGTQVTVSS	high polyreactivity
QVHLVESGGGLVQAGGILRLSWASSGFIFPRYAMGSYRQAPGKERELVAGITSRGTGTYYADSVKGRFTISRDNAKNTVYLQMNSLKQEDTAVYYCARLSTKPLPYDDWGQGTQVTVSS	high polyreactivity
QVQLVESGGGLVQAGGSLLLSCAASGFTFGFNAMGWYRQAPGQERELGAAISRGGSTNYADSVKGRFTISRDNAKNTVYVQMNSLKPEDTAVYDCAADFITYVFRFYYWGQGTLVTVSS	low polyreactivity
QVQLVESGGGIVQAGGSLRLICAASGFTFWDYAMGWHRQAPGKERELVAAISWSGGSTYYADSVKGRFTISRDNAKNTVYLQMNSLKPEDTAVYYCNAVHYSRYVHPGHSMYYWGQGTQVTVSS	low polyreactivity
LVQLQESGGGLVQEGGSLRMSCAASGTISPGGYMGWYRQAPGKERELVASINVGGSTNYADSVKGRFTISRDNAKNTVYLQMNSLKPEDNAVYYCAVWGRNRLQLSYWGQGTQVTVSS	low polyreactivity
QVQLVESGGGLVQAGGSLRLSCAASGFIFSSYAMGWYRQAPGKERELVAAISRSGGRTNYADSVKGRFTISRDNAKNTVYLQMNSLKPEDTAVYYCNADRKYWSLWGPAYDYWGHGTQVTVSS	high polyreactivity
QVQLVESGGCLVQAGGSLRLSCAASGSIFGWYDMGWYRQARGYERELVAAMTSDGSTNYADSVKGRFTISRDNAKNTVYLQKNSLKPEDTAVYYCAQDGWYYYYPYDYWGQGTQVTVSS	low polyreactivity
QVQLVESGGGLVQAGGSLRLSCAASGGTILLYAMGWYRQAPGKERELVAGINSGGSTYYADSVKGRFTISRDNAKNTVYLQMNSLKPEDTAVYYCNARSTRYGGDYWGQGTQVTVSS	low polyreactivity
QVQLVESGGGLVQAGGSLRLSCAASGRIFNYYAMGWYRQAHGKERELVAVITYSAGRTYYADSVKGRFTISRDNAKNTVYLQMNSLKPEDTAVYNCNADGWVSVSKHYYYWGQGTQVTVSS	low polyreactivity
QVQLVESGGGLVQAGGSLRLSCAASGITFVAYAMGWYRQAPGKERELVAAISYNGGSTNYADSVKGRFTISRDNAKNTVYLQMNSLKPEDTAVYYCAADLAEFYPRFNYWGQGTQVTVSS	low polyreactivity
QVQLVESGVGLVQAGGSLRLSSAASGFTFIYYAMGWYRQAPGKERELVAAITSGGNTYYADSVKGRFTISRDNAKNTDYLQMNSLTPEDPAVYYCNKVPHREWVGGYDYWGQGTQVTVSS	low polyreactivity
QVQLLESGGGLVQAGGSLRLSCAASGFIFSKYAMGWYRQAPGKERELVAGINRSGGSTYYADSVKGRFTISRDNAKNTVYFQMNSLKPEDTAVYYCAAPFGVQSRWYGQSGYWGQGTQVTVSS	high polyreactivity
QDQLLETGGGLVQAGGSLRLSCAASGSTSLVYAMGWYRQAPGKERELVADISWSGGSTYYTDSVKGRFTISRDNAKNTVYLQMNSLKPEDTAVYYCNGGTYSTSVPYPYKYWGQGTQVTVSS	high polyreactivity
QVQLVESGGGLVQAGGSLRLSCAASGRIFAGYVMGWYRQAPGKERELVAAITSGGGTDYADSVKGRFTISRDNAKNTVYLQMNSQKPEDTAVYYCAADPYYSWFGWDYEYWGQGTQVTVSS	high polyreactivity
QVQLEDSGGGLVQAGGSLRLSCAASGIIFPDYAMGWYRQAPGKQRELVADISFSAGSTYYADSVKGRFTISRDNAKNTVYLQMNSLKPEDTAVYYCNARPFLTVLYLFYGNNYDYWGQGTQVTVSS	low polyreactivity
QVQLVESGGGLVQAGGSLRLSCAASGFIFYYNAMGWYRQAPGKERELVAAIDSGGRTNYADSVKGRFTISRDNAKNTVYLQMNSLKPEDTAVYYCAADVITYATYGTRKFQRYGYWGQGTQVTVSS	low polyreactivity
QVQLVESGGGLVQAGGSLRLSCAASGSIFWYYAMGWYRQAPGKERELVARITYSSGSTYYADSVKGRFTISRDNAKNTVYLQMNSLKPEDTAVFYCAVRLYSYLYNPFNYWGQGTQVTVSS	high polyreactivity
QVQLVESGGGLVQAGGSLRLSCAASGITFGPYAMGWYRQAPGKERELVAAISAGGGSTYYADSVKGRFTISRDNAKNTVYLQMNSLKPEDTAVYYCAAYLLHHYGGPEYYYWGQGTQVTVSS	high polyreactivity
QVQLVESGGGLVQAGGSLRLSCAASGIIFYPYAMGWYRQAPGKERELVAAISIGGGSTYYADSVKGRFTISRDYAKNTVYLQMNSLKPEDTAVYYFAAGTPYGILGFYYWGQGTQVTVSS	low polyreactivity
QVQLVESGGGLVQAGGSLRLSSAASGRTFYSNAMGWYRQAPGKERELVAAITRGASTKYADSVKGRFTISRDNAKNSVYLQMNSLKPEDTAVYYCDTARYPRYIYDYWGQGTQVTVSS	low polyreactivity
